B1: 0×1 linker variant of Construct 11 (bispecific antibody)
heavy: EVQLVETGGGLVKPGGSLRLSCSASRFSFRDYYMTWIRQAPGKGPEWVSHISGSGSTIYYADSVRGRFTISRDNAKSSLYLQMDSLQADDTAVYYCARGGRATSYYWVHWGPGTLVTVSSASTKGPSVFPLAPSSKSTSGGTAALGCLVKDYFPEPVTVSWNSGALTSGVHTFPAVLQSSGLYSLSSVVTVPSSSLGTQTYICNVNHKPSNTKVDKKVEPKSCDKTHTCPPCPAPPVAGPDVFLFPPKPKDTLMISRTPEVTCVVVDVSHEDPEVKFNWYVDGVEVHNAKTKPREEQYNSTYRVVSVLTVLHQDWLNGKEYKCKVSNAALPAPIAKTISKAKGQPREPQVYTLPPSRDELTKNQVSLTCLVKGFYPSDIAVEWESNGQPENNYKTTPPVLDSDGSFFLYSKLTVDKSRWQQGNVFSCSVMHEALHNRFTQKSLSLSPGKMLPAPKNLVVSRVTEDSARLSWTAPDAAFDSFHIEYAEPWVWGEAIVLTVPGSERSYDLTGLKPGTEYVVFIGGVKGGHNSTPLSAIFTTGGGGSMLPAPKNLVVSRVTEDSARLSWTAPDAAFDSFWITYEEKFYRGEAIVLTVPGSERSYDLTGLKPGTEYKVWIVGVKGGQGSWPLSAIFTT
light: EIVLTQSPATLSLSPGERATLSCRASQSVSGYLGWYQQKPGQAPRLLIYGASSRATGIPDRFSGSGSGTDFTLTISRLEPEDFAVYYCQQYGSSPLTFGGGTKLEIKRTVAAPSVFIFPPSDEQLKSGTASVVCLLNNFYPREAKVQWKVDNALQSGNSQESVTEQDSKDSTYSLSSTLTLSKADYEKHKVYACEVTHQGLSSPVTKSFNRGEC
B2: 0×3 linker variant of Construct 11 (bispecific antibody)
heavy: EVQLVETGGGLVKPGGSLRLSCSASRFSFRDYYMTWIRQAPGKGPEWVSHISGSGSTIYYADSVRGRFTISRDNAKSSLYLQMDSLQADDTAVYYCARGGRATSYYWVHWGPGTLVTVSSASTKGPSVFPLAPSSKSTSGGTAALGCLVKDYFPEPVTVSWNSGALTSGVHTFPAVLQSSGLYSLSSVVTVPSSSLGTQTYICNVNHKPSNTKVDKKVEPKSCDKTHTCPPCPAPPVAGPDVFLFPPKPKDTLMISRTPEVTCVVVDVSHEDPEVKFNWYVDGVEVHNAKTKPREEQYNSTYRVVSVLTVLHQDWLNGKEYKCKVSNAALPAPIAKTISKAKGQPREPQVYTLPPSRDELTKNQVSLTCLVKGFYPSDIAVEWESNGQPENNYKTTPPVLDSDGSFFLYSKLTVDKSRWQQGNVFSCSVMHEALHNRFTQKSLSLSPGKMLPAPKNLVVSRVTEDSARLSWTAPDAAFDSFHIEYAEPWVWGEAIVLTVPGSERSYDLTGLKPGTEYVVFIGGVKGGHNSTPLSAIFTTGGGGSGGGGSGGGGSMLPAPKNLVVSRVTEDSARLSWTAPDAAFDSFWITYEEKFYRGEAIVLTVPGSERSYDLTGLKPGTEYKVWIVGVKGGQGSWPLSAIFTT
light: B1 light
B3: 0×2 linker variant of Construct 11 (bispecific antibody)
heavy: EVQLVETGGGLVKPGGSLRLSCSASRFSFRDYYMTWIRQAPGKGPEWVSHISGSGSTIYYADSVRGRFTISRDNAKSSLYLQMDSLQADDTAVYYCARGGRATSYYWVHWGPGTLVTVSSASTKGPSVFPLAPSSKSTSGGTAALGCLVKDYFPEPVTVSWNSGALTSGVHTFPAVLQSSGLYSLSSVVTVPSSSLGTQTYICNVNHKPSNTKVDKKVEPKSCDKTHTCPPCPAPPVAGPDVFLFPPKPKDTLMISRTPEVTCVVVDVSHEDPEVKFNWYVDGVEVHNAKTKPREEQYNSTYRVVSVLTVLHQDWLNGKEYKCKVSNAALPAPIAKTISKAKGQPREPQVYTLPPSRDELTKNQVSLTCLVKGFYPSDIAVEWESNGQPENNYKTTPPVLDSDGSFFLYSKLTVDKSRWQQGNVFSCSVMHEALHNRFTQKSLSLSPGKMLPAPKNLVVSRVTEDSARLSWTAPDAAFDSFHIEYAEPWVWGEAIVLTVPGSERSYDLTGLKPGTEYVVFIGGVKGGHNSTPLSAIFTTGGGGSGGGGSMLPAPKNLVVSRVTEDSARLSWTAPDAAFDSFWITYEEKFYRGEAIVLTVPGSERSYDLTGLKPGTEYKVWIVGVKGGQGSWPLSAIFTT
light: B1 light

biological target: T1, LukAB toxoid variant (LukA E323A), recombinant polyhistidine-tagged (S. aureus, UniProt Q2FFA2 28-351; P21224 30-338); experiment: ELISA, biotinylated toxin on streptavidin plate
T1 sequence 1: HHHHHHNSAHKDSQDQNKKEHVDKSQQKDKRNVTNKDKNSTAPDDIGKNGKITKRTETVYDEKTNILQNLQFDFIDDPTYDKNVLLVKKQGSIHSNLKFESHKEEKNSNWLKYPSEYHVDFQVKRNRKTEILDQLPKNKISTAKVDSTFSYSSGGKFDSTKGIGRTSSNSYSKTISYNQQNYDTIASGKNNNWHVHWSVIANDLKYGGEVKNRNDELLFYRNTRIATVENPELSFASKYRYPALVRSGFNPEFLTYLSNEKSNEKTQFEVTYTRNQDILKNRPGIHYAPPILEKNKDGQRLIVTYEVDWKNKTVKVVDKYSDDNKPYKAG
T1 sequence 2: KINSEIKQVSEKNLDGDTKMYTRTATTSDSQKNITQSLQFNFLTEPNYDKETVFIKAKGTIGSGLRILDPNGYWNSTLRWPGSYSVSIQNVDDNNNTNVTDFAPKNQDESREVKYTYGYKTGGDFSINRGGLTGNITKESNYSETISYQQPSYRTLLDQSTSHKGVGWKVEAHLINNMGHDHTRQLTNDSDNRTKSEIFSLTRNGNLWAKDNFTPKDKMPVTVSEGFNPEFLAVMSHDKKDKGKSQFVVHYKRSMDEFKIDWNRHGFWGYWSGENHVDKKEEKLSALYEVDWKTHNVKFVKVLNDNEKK

**Q.** Does B1 bind?
**A.** binds

**Q.** Does B2 bind?
**A.** binds

**Q.** Does B3 bind?
**A.** binds

Source: patent US20190127444A1 (NEW YORK UNIVERSITY, published 2019)
